In PMC10239968, “[^18F]AlF-NOTA-ADH-1: A new PET molecular radiotracer for imaging of N-cadherin-positive tumors” (Frontiers in Oncology, 2023):

Assays:
in vivo = assay: in vivo; set-up: species or system Kunming mice; conditions: mouse; for tissue uptake at 2 min / tissue uptake at 5 min / tissue uptake at 0.25 h / tissue uptake at 0.5 h / tissue uptake at 1 h / tissue uptake at 2 h: Kunming, total radioactivity
Procedure: Thirty SPF Kunming mice weighing 18-20g were randomly divided into 6 groups (n=5). As described above, [^18F]AlF-NOTA-ADH-1 was purified and separated by HPLC analysis. Each mouse was injected with a dose of 0.74MBq (20μCi) through a caudal vein. Blood was collected from the orbit, the mice were sacrificed, and the brain, heart, lung, liver, spleen, kidney, stomach, intestine, muscle, bone and other organs were taken at 2 min, 5 min, 15 min, 30 min, 60min and 120min after injection. The radioactivity results were recorded as injected radioactivity per gram of tissue (% ID/g) corrected for background and decay.

SW480 tumor xenografts = assay: Micro-PET imaging, SW480 tumor model; type: in vivo, nude mice; conditions: SW480 tumor-bearing nude mouse model, 60 min after injecting, non-blocked
Procedure: [^18F]AlF-NOTA-ADH-1 was evaluated by micro-PET imaging on nude mice bearing a PDX tumor, SW-480 and BxPC3 tumor xenografts. Each tumor-bearing nude mouse was injected with 3.7MBq [^18F]AlF-NOTA-ADH-1 via the tail vein. After being anesthetized with isoflurane, tumor-bearing nude mice were imaged using a micro-PET/CT scanner at 60 minutes post-injection under continuous isoflurane inhalation using a nasal mask with a connecting tube. Micro-PET/CT scanning was performed after low-dose 3D acquisition CT scanning at 10 minutes per bed. A blocking study was conducted, in which a saturating dose of unlabeled ADH-1 (20 mg/kg of mouse body weight) was intravenously administered 60 min before the intravenous injection of [^18F]AlF-NOTA-ADH-1.
The three-dimensional volume of interest (VOI) was used to assess the standard uptake value (SUV) of selected organs. The Seimens Inveon analysis software configured with micro-PET/CT was used to delineate the region of interest along the edge of the tumor and each normal tissue on the PET image. Subsequently, the SUV of each region of interest was measured, and the tumor/non-tumor ratio (T/NT) between the tumor and normal tissue was measured.

[1] = iv, 0.74 MBq (20 uCi) per mouse, Blood radioactive concentration
[2] = iv, 0.74 MBq (20 uCi) per mouse, Bone uptake
[3] = iv, 0.74 MBq (20 uCi) per mouse, Brain uptake
[4] = iv, 0.74 MBq (20 uCi) per mouse, Intestines uptake
[5] = iv, 0.74 MBq (20 uCi) per mouse, Muscle uptake
[6] = iv, 0.74 MBq (20 uCi) per mouse, Skin uptake

In the case of `CC(=O)N[C@H]1CSSC[C@@H](C(=O)NCCNC(=O)CN2CCN(CC(=O)O)CCN(CC(=O)O)CC2)NC(=O)[C@H](C(C)C)NC(=O)[C@H](C)NC(=O)[C@H](Cc2c[nH]cn2)NC1=O` [[^18F]AlF-NOTA-ADH-1], the tissue uptake at 2 min (in vivo; [1]) is reported as 18.8 ± 1.95 %ID/g, the tissue uptake at 5 min (in vivo; [1]) is reported as 8.77 ± 1.37 %ID/g and the tissue uptake at 0.25 h (in vivo; [1]) is reported as 3.79 ± 1.19 %ID/g. It also gave a tissue uptake at 0.5 h (in vivo; [1]) of 2.28 ± 0.81 %ID/g, a tissue uptake at 1 h (in vivo; [1]) of 2.15 ± 0.18 %ID/g and a tissue uptake at 2 h (in vivo; [1]) of 1.04 ± 0.36 %ID/g. It also gave a tissue uptake at 2 min (in vivo; [2]) of 5.3 ± 0.94 %ID/g, a tissue uptake at 5 min (in vivo; [2]) of 6.71 ± 0.62 %ID/g and a tissue uptake at 0.25 h (in vivo; [2]) of 3.72 ± 0.29 %ID/g. For the same molecule, the tissue uptake at 0.5 h (in vivo; [2]) was 3.09 ± 0.26 %ID/g, the tissue uptake at 1 h (in vivo; [2]) was 1.51 ± 0.36 %ID/g and the tissue uptake at 2 h (in vivo; [2]) was 1.38 ± 0.73 %ID/g. For the same molecule, the tissue uptake at 2 min (in vivo; [3]) was 1.05 ± 0.25 %ID/g, the tissue uptake at 5 min (in vivo; [3]) was 0.87 ± 0.3 %ID/g and the tissue uptake at 0.25 h (in vivo; [3]) was 0.46 ± 0.1 %ID/g. For the same molecule, the tissue uptake at 0.5 h (in vivo; [3]) was 0.39 ± 0.1 %ID/g, the tissue uptake at 1 h (in vivo; [3]) was 0.22 ± 0.05 %ID/g and the tissue uptake at 2 h (in vivo; [3]) was 0.58 ± 0.68 %ID/g. It also gave a tissue uptake at 2 min (in vivo; iv, 0.74 MBq (20 uCi) per mouse, Heart uptake) of 9.15 ± 0.91 %ID/g, a tissue uptake at 2 min (in vivo; [4]) of 5.39 ± 0.84 %ID/g and a tissue uptake at 5 min (in vivo; [4]) of 6.06 ± 1.42 %ID/g. The tissue uptake at 0.25 h (in vivo; [4]) was 5.73 ± 0.64 %ID/g, the tissue uptake at 0.5 h (in vivo; [4]) was 6.28 ± 0.59 %ID/g and the tissue uptake at 1 h (in vivo; [4]) was 5.27 ± 1.09 %ID/g. For the same molecule, the tissue uptake at 2 h (in vivo; [4]) was 4.18 ± 0.53 %ID/g, the tissue uptake at 2 min (in vivo; [5]) was 3.97 ± 0.56 %ID/g and the tissue uptake at 5 min (in vivo; [5]) was 5.91 ± 1.16 %ID/g. For the same molecule, the tissue uptake at 0.25 h (in vivo; [5]) was 2.79 ± 0.68 %ID/g, the tissue uptake at 0.5 h (in vivo; [5]) was 3.32 ± 1.77 %ID/g and the tissue uptake at 1 h (in vivo; [5]) was 1.08 ± 0.21 %ID/g. For the same molecule, the tissue uptake at 2 h (in vivo; [5]) was 1.22 ± 0.7 %ID/g, the tissue uptake at 2 min (in vivo; [6]) was 5.6 ± 0.85 %ID/g and the tissue uptake at 5 min (in vivo; [6]) was 5.08 ± 2.74 %ID/g. For the same molecule, the tissue uptake at 0.25 h (in vivo; [6]) was 3.11 ± 1.47 %ID/g, the tissue uptake at 0.5 h (in vivo; [6]) was 2.59 ± 0.96 %ID/g and the tissue uptake at 1 h (in vivo; [6]) was 1.85 ± 1.48 %ID/g. It also gave a tissue uptake at 2 h (in vivo; [6]) of 1.1 ± 0.96 %ID/g, a tissue uptake at 5 min (in vivo; iv, 0.74 MBq, Heart uptake) of 7.54 ± 2.08 %ID/g and a tissue uptake at 0.25 h (in vivo; iv, 0.74 MBq, Heart uptake) of 3.57 ± 0.82 %ID/g. For the same molecule, the tissue uptake at 0.5 h (in vivo; iv, 0.74 MBq, Heart uptake) was 3.64 ± 0.66 %ID/g, the tissue uptake at 1 h (in vivo; iv, 0.74 MBq, Heart uptake) was 1.19 ± 0.7 %ID/g and the tissue uptake at 2 h (in vivo; iv, 0.74 MBq, Heart uptake) was 1.01 ± 0.15 %ID/g. The tissue uptake at 2 min (in vivo; iv, 0.74 MBq, Kidney uptake) was 24.9 ± 1.12 %ID/g, the tissue uptake at 5 min (in vivo; iv, 0.74 MBq, Kidney uptake) was 36.5 ± 2 %ID/g and the tissue uptake at 0.25 h (in vivo; iv, 0.74 MBq, Kidney uptake) was 22.1 ± 1.43 %ID/g. The tissue uptake at 0.5 h (in vivo; iv, 0.74 MBq, Kidney uptake) was 25.7 ± 1.17 %ID/g, the tissue uptake at 1 h (in vivo; iv, 0.74 MBq, Kidney uptake) was 22.2 ± 1.92 %ID/g and the tissue uptake at 2 h (in vivo; iv, 0.74 MBq, Kidney uptake) was 15.2 ± 0.96 %ID/g. The tissue uptake at 2 min (in vivo; iv, 0.74 MBq, Liver uptake) was 8.01 ± 1.26 %ID/g, the tissue uptake at 5 min (in vivo; iv, 0.74 MBq, Liver uptake) was 7.09 ± 2.03 %ID/g and the tissue uptake at 0.25 h (in vivo; iv, 0.74 MBq, Liver uptake) was 14.8 ± 1.11 %ID/g. It also gave a tissue uptake at 0.5 h (in vivo; iv, 0.74 MBq, Liver uptake) of 16.1 ± 2.34 %ID/g, a tissue uptake at 1 h (in vivo; iv, 0.74 MBq, Liver uptake) of 21.6 ± 3.53 %ID/g and a tissue uptake at 2 h (in vivo; iv, 0.74 MBq, Liver uptake) of 13.7 ± 2.35 %ID/g. For the same molecule, the tissue uptake at 2 min (in vivo; iv, 0.74 MBq, Lung uptake) was 6.26 ± 1.29 %ID/g, the tissue uptake at 5 min (in vivo; iv, 0.74 MBq, Lung uptake) was 4.74 ± 1.69 %ID/g and the tissue uptake at 0.25 h (in vivo; iv, 0.74 MBq, Lung uptake) was 3.05 ± 0.4 %ID/g. For the same molecule, the tissue uptake at 0.5 h (in vivo; iv, 0.74 MBq, Lung uptake) was 2.15 ± 0.27 %ID/g, the tissue uptake at 1 h (in vivo; iv, 0.74 MBq, Lung uptake) was 2.19 ± 0.42 %ID/g and the tissue uptake at 2 h (in vivo; iv, 0.74 MBq, Lung uptake) was 1.62 ± 0.35 %ID/g. For the same molecule, the tissue uptake at 2 min (in vivo; iv, 0.74 MBq, Spleen uptake) was 3.84 ± 1.47 %ID/g, the tissue uptake at 5 min (in vivo; iv, 0.74 MBq, Spleen uptake) was 5.09 ± 1.29 %ID/g and the tissue uptake at 0.25 h (in vivo; iv, 0.74 MBq, Spleen uptake) was 3.08 ± 0.55 %ID/g. It also gave a tissue uptake at 0.5 h (in vivo; iv, 0.74 MBq, Spleen uptake) of 2.66 ± 0.22 %ID/g, a tissue uptake at 1 h (in vivo; iv, 0.74 MBq, Spleen uptake) of 1.81 ± 0.57 %ID/g and a tissue uptake at 2 h (in vivo; iv, 0.74 MBq, Spleen uptake) of 1.24 ± 0.3 %ID/g. For the same molecule, the tissue uptake at 2 min (in vivo; iv, 0.74 MBq, Stomach uptake) was 5.63 ± 1.98 %ID/g, the tissue uptake at 5 min (in vivo; iv, 0.74 MBq, Stomach uptake) was 7.27 ± 1.89 %ID/g and the tissue uptake at 0.25 h (in vivo; iv, 0.74 MBq, Stomach uptake) was 4.26 ± 0.55 %ID/g. The tissue uptake at 0.5 h (in vivo; iv, 0.74 MBq, Stomach uptake) was 4.78 ± 0.98 %ID/g, the tissue uptake at 1 h (in vivo; iv, 0.74 MBq, Stomach uptake) was 2.32 ± 0.56 %ID/g and the tissue uptake at 2 h (in vivo; iv, 0.74 MBq, Stomach uptake) was 1.55 ± 0.2 %ID/g. The “In vivo defluorination (bone uptake)” value (in vivo) was “no obvious in vivo defluorination”, the Blood clearance (in vivo; iv) was “rapid blood clearance” and the “Micro-PET T/Bone” value (SW480 tumor xenografts) was 1.903±0.273. The “Micro-PET T/Lung” value (SW480 tumor xenografts) was 3.359±2.998 and the Micro-PET tumor/muscle ratio (SW480 tumor xenografts) was 1.443±0.121.
